As usually defined, the Kd is a measure of binding affinity in units of concentration.

Series [1] relates to eIF3F. The experiment in a line: EMSA. Particulars: 0.4-2.6 uM protein; fluorescein-12-UTP incorporated about every 20-25 nt; 150 mM NaCl, 20 mM HEPES (pH not stated), 1.5 mM MgCl2, 0.1 mM EDTA, 0.75 mM DTT, 10% glycerol; 2.3 nM labelled RNA; on ice 20 min; 1% native agarose gel.
Series [2] deals with PDCD4. Nature of the series: EMSA. To be noted: 0.2-1.2 uM protein; fluorescein-12-UTP incorporated about every 20-25 nt; 150 mM NaCl, 20 mM HEPES (pH not stated), 1.5 mM MgCl2, 0.1 mM EDTA, 0.75 mM DTT, 10% glycerol; 2.3 nM labelled RNA; on ice 20 min; 1% native agarose gel.

For the substance Bcl-xL IRES RNA, the dissociation constant Kd in series [1] turned out to be 800 nM; in series [2], 400 nM.

The values are drawn from article PMC13163806.
